Where “and” joins values, the source holds several entries; their conditions need not be identical. Equal values may be shown once.

Experiment [1] deals with human vascular smooth muscle cells (hVSMC) isolated from atherosclerotic donors. As to the kind of experiment: Phosphorus stimulated matrix mineralization (matrix Ca content) in hVSMC cultures. The class given is cell-based. The arrangement: Matrix Ca content, Effects of 10 ng/ml BMP-7: unit not given here. How it is done: Cell Culture: Human adult aorta were obtained from seven cadaveric organ donors rejected because of atherosclerosis by Mid-America Transplant Services (St. Louis, Mo.) and enzymatically digested to obtain Human Smooth Muscle Cells (HSMC). Medial tissue was separated from the adventia and intima and digested with collagenase type I (Worthington, Lakewood, N.J.) 2 mg/ml for 1 hr, and washed with Hank's balanced salt solution (HBSS). Further digestion followed with collagenase type II 1 mg/ml (Worthington, Lakewood, N.J.) and elastase 0.25 mg/ml (Worthington, Lakewood, N.J.) for 4 hrs. Cell suspensions were washed twice with HBSS and cultured in T-75 flasks for three weeks in a 95%/5% air/CO2 humidified environment at 37° C. The growth medium used was DMEM containing […] glucose (high glucose), 10% fetal bovine serum (FBS, Atlas, Fort Collins, Colo.), 1 mM sodium pyruvate, 100 units/ml Penicillin and […] Streptomycin (Sigma, St Louis, Mo.). Cell purity was assessed by positive immunostaining for α-smooth muscle actin and calponin and for the absence of von Willebrand factor. In all experimental protocols, cells were seeded at 1×10^5 cells/well in six-well plates. Medium was changed on the first day and every third day thereafter. In all cases, cells used were between passages two and five (Table 3).
Induction of Calcification: At the time of confluence, cells were switched to mineralization medium consisting of DMEM supplemented with 1 or 2 mM Pi. For cells exposed to BMP-7 treatment, fresh mineralization medium containing either vehicle (mannitol, acetic acid, acetate) or BMP-7 in vehicle was added at 0.1, 1.0, 10, or 100 ng/ml. The medium was changed every two or three days. […] Calcium content was quantified and normalized to cellular protein as described. (Jono 2000; Moe S. M. et al., Kidney Int 67:2295-2304, 2005)^11;52
In vitro matrix mineralization. […]

The test system of experiment [2] is AV anastomosis NH lesion in mice. As to the kind of experiment: Neointimal hyperplasia lesion formation at arteriovenous fistula anastomosis in CKD and sham mice. It is filed as in vivo, mouse. An excerpt:
Six weeks after creation of CKD and sham mice as described above, animals underwent an AV fistula creation by anastomosing the left common carotid artery to the jugular vein in an end-to-side fashion. Under a sterile condition, a vertical incision was made in the left neck with the left common carotid artery and the adjacent external jugular vein carefully dissected out. The common carotid artery clamp was placed at the proximal portion with an 11-0 nylon suture and the common carotid artery was divided just proximal to the bifurcation. Next, the jugular vein was clamped proximally and distally and punctured in the middle portion with a 27 G syringe. After filling this vein segment with heparinized saline, the venotomy of 0.7 mm in length was performed. […]
Three weeks after AV fistula creation, animals were euthanized, and the AV anastomoses were perfusion-fixed via the left ventricle at 100 mm Hg pressure as described previously (Leidenfrost J E, et al., Am J Pathol. 2003; 163(2):773-778).^53 Before perfusion fixation, blood was drawn from the left ventricle for the biochemical analysis. Blood urea nitrogen (BUN), phosphorus, and calcium were measured by autoanalyzer techniques in the Animal Facility Clinical Laboratory at Washington University in St. Louis, Mo. […]

B1: BMP-7: bone morphogenetic protein-7 (osteogenic protein-1), mineralization-countering morphogen; provided by Johnson and Johnson (protein, listed as Homo sapiens)
chain: STGSKQRSQNRSKTPKNQEALRMANVAENSSSDQRQACKKHELYVSFRDLGWQDWIIAPEGYAAYYCEGECAFPLNSYMNATNHAIVQTLVHFINPETVPKPCCAPTQLNAISVLYFDDSSNVILKKYRNMVVRACGCH
As for B1, the “mineralization of the ECM” value in experiment [1] (BMP-7 0.1, 1 and 10 ng/ml, 14 or 21 days in high phosphorus media (FIG. 4)) is “decreased mineralization of the ECM”. Further, the “Matrix Ca content, Effects of 10 ng/ml BMP-7” value in experiment [1] (hVSMC from atherosclerotic aortas, one donor (donors 1-7, passage 2-3), 10 ng/ml BMP-7 in high phosphorus (2 mM PO4) media) was 18 and 17.9 and 25.8 and 19.8 and 22.1 and 20.3 and 20.6. Further, in experiment [2] (CKD animals, BMP-7 100 μg/kg intraperitoneally twice a week, P<0.01 (FIG. 12)), the “NH lesion formation induced by CKD” value is “eliminated the stimulation of NH lesion formation induced by CKD”. Also, in experiment [2] (sham operated animals, BMP-7 100 μg/kg intraperitoneally twice a week (FIG. 12)), the NH lesion development result is listed as “no effect”.

The record behind these values is US8741840B2, “BMP-7 for use in treating neointimal hyperplasia” (Washington University, priority 2008, dated 2014).
